According to the RNAGym collection of RNA variant scans (doi:10.7554/elife.90254):

B1: OR4K15 (parent)
chain: GUUAACGGUCAUAGGCCAUGGAAACUAGGAGCACCAUUUCGCUGCCAGUGAAGAAAUGAACAAAGAAAAUCUGGGCCAGGCAGGCAUCAAAAGAAAUAGUCUUGCGCUCAACCAGAAAGUCUGUAAUCAUUUUAAGGGUA

Variants of: B1
Assay: self-cleavage, relative activity (ratio to wild type); higher = more cleavage; in vitro, sequencing; the parent is a self-cleaving ribozyme

| Variant | self-cleavage |
| --- | --- |
| GUUAACGGUCAUAGGCCAUGGAAACUAGGAGCACCAUUUCGCAGCCAGUGAAGAAAUGGACAAAGAAAAUCUGGGCCAGGCAGGCAUCAAAAGAAAUAGUCUUGCGCUCAACCAGAAAGUCUGUAAUCAUUUUAAGGGUA [U43A A59G] | 1.52 |
| GUUAACGGUCAUAGGCCAUGGAAACUGGGAGCACCAUUUCGCUGCCAGUGAAGAAAUGAACAAAGAAAAUCUGGGCCAGGCAGGCAUCAAAAGAAAUAGUCUUGCGCUCAACCAGAAAGUCUGUAAUCUUUUUAAGGGUA [A27G A129U] | 0.72 |
| GUUAACGGUCAUAGGCCAUGGAAACUAGGAGCACCAUUUCGCUGCCAGUGAAGAAAUGAACAAAGAAAAUCUGGGCCAGGCAGGCAUCAAAAGAAAUAGUCCUGCGCUCUACCAGAAAGUCUGUAAUCAUUUUAAGGGUA [U102C A110U] | 1.94 |
| GUUAACGGUCAUAGGCCAUGGUAACUAGGAGCACCAUUUCGCUGCCAGUGAAGAAGUGAACAAAGAAAAUCUGGGCCAGGCAGGCAUCAAAAGAAAUAGUCUUGCGCUCAACCAGAAAGUCUGUAAUCAUUUUAAGGGUA [A22U A56G] | 1.16 |
| GUUAACGGUCAUAGGCCAUGGAAACUAGGAGCACCAUUUCGCUGCCAGUGAAGAAAUGAACAAAGAAAUUCUGGGCCAGGCAGGCAUCAAAAGAAAUAGUCUUGCGCUCAACCAGAAAGUCUGUAAUCAUUUUAAAGGUA [A69U G136A] | 2.69 |
| GUUAACGGUCAUAGGCCAUGGAAACUAGGAGCACCAUUUCGCUGCCAGUGAAGAAAUGAACAAAGAAAAUCUGGGCCAGGCAGGCAUCAAAAGAAACAGUCUUGCGCUCAACCAGAAAGUCAGUAAUCAUUUUAAGGGUA [U97C U122A] | 1.65 |
| GUUAACGGUCAUAGGCCAUGGAAACUGGGAGCACCAUUUCGCUGCCAGUGAAGAAAUGAACAAAGAAAAUCUGGGCCAGGCAGGCAUCAAAAGAAAUAGUCUUGCGCUCAACCGGAAAGUCUGUAAUCAUUUUAAGGGUA [A27G A114G] | 0.27 |
| GUUAACGGUCAUAGGCCAUGGAAACUAGGAGCUCCAUUUCGCUGCCAGUGAAGAAAUGAGCAAAGAAAAUCUGGGCCAGGCAGGCAUCAAAAGAAAUAGUCUUGCGCUCAACCAGAAAGUCUGUAAUCAUUUUAAGGGUA [A33U A60G] | 1.38 |
| GUUAACGGUCAUAGGCCAUGGAAACUAGGAGCACCAUUUCGCUGCCAGUGAAAAAAUGAGCAAAGAAAAUCUGGGCCAGGCAGGCAUCAAAAGAAAUAGUCUUGCGCUCAACCAGAAAGUCUGUAAUCAUUUUAAGGGUA [G53A A60G] | 1.53 |
| GUUAACGGUCAUAGGCCAUGGAAACUAGGAGCACCAUUUCGCUGCCAGUGACGAAAUGAACAAAGAAAAUCUGGGCCAGGCAGGCAUCAAAAGAAAUAGUCUUGCGCUCAACCAGAAAGCCUGUAAUCAUUUUAAGGGUA [A52C U120C] | 0.58 |
| GUUAACGGUCAUAGGCCAUGGAAACUAGGAGCACCAUUACGCUGCCAGAGAAGAAAUGAACAAAGAAAAUCUGGGCCAGGCAGGCAUCAAAAGAAAUAGUCUUGCGCUCAACCAGAAAGUCUGUAAUCAUUUUAAGGGUA [U39A U49A] | 1.4 |
| GUUAACGGUCAUAGGCCAUGGAAACUAGGAGCACCAUUUCGCUGCCAGUGGAGUAAUGAACAAAGAAAAUCUGGGCCAGGCAGGCAUCAAAAGAAAUAGUCUUGCGCUCAACCAGAAAGUCUGUAAUCAUUUUAAGGGUA [A51G A54U] | 1.4 |
| GUUAACGGUCAUAGGCGAUGGAAACUAGGAGCACCAUUUCGCUGCCAGUGAAGAAAUGAACAAAGAAAAUCUGGGCCAAGCAGGCAUCAAAAGAAAUAGUCUUGCGCUCAACCAGAAAGUCUGUAAUCAUUUUAAGGGUA [C17G G79A] | 0.18 |
| GUUAACGGUCAUAGGCCAUGGAAACUAGGAGCACCAUUUCGCUGCCAGUGAAGAAAUGAACAAAGAAAAUCUGGGCCAGGCAGGCGUCAAAAGAAAUAGUCUUGCGCUCAACCAGAAAGCCUGUAAUCAUUUUAAGGGUA [A86G U120C] | 0.35 |
| GUUAACGGUCAUAGGCCAUGGAAACUAGGAGCACCAUUUCGCUGCCAGAGAAGAAAUGAACAAGGAAAAUCUGGGCCAGGCAGGCAUCAAAAGAAAUAGUCUUGCGCUCAACCAGAAAGUCUGUAAUCAUUUUAAGGGUA [U49A A64G] | 1.2 |
| GUUAACGGUCAUAGGCCAUGGAAACUAGGAGCACCAUUUCGCUGCCAGUGAAGAAAUGAACAAAGAAAAUCUGGGCCAGGCAGGCAUCAAAAAAAAUAGUCUUGCGCACAACCAGAAAGUCUGUAAUCAUUUUAAGGGUA [G93A U108A] | 0.02 |
| GUUAACGGUCAUAGGCCAUGGAAACUAGGAGCACCAUUUCGCUGCCAGUGAAGAACUGAACAAAGAAAGUCUGGGCCAGGCAGGCAUCAAAAGAAAUAGUCUUGCGCUCAACCAGAAAGUCUGUAAUCAUUUUAAGGGUA [A56C A69G] | 1.24 |
| GUUAACGGCCAUAGGCCAUGGAAACUAGGAGCACCAUUUCGCUGCCAGUGAAGAUAUGAACAAAGAAAAUCUGGGCCAGGCAGGCAUCAAAAGAAAUAGUCUUGCGCUCAACCAGAAAGUCUGUAAUCAUUUUAAGGGUA [U9C A55U] | 1.16 |
| GUUAACGGUCAUAGGCCAUGGAAACUAGGAGCACCAUUUCGCUGCCGGUGAAGAAAUGAACAAAGAAAAUCUGGGCCAGGCAGGCAUCAAAAGAAAUAGUCUUGCGCUCAACCAGAAAGUCUGUAAUCAUUCUAAGGGUA [A47G U132C] | 0.47 |
| GUUAACGGUCAUAGGCCAUGGAAACUAGGAGCACCAUUUCGCUGCCAGUGAGGAAAUGAACAAAGAAAAUCUGGGCCAGGCAGGCAUCAAAAGAAAUAGUCUUGCGCUCAACCAGAAAGUCUGUAAUAAUUUUAAGGGUA [A52G C128A] | 0.64 |
| GUUAACGGUCAUAGGCCAUGGAAACUAGGAGCACCAUUUCGCUGCCAGUGAAGAAAUGAACAAAGAAAAUCUGGGCCAGGCAGGCAUCAAAGGAAUUAGUCUUGCGCUCAACCAGAAAGUCUGUAAUCAUUUUAAGGGUA [A92G A96U] | 1.84 |

| Variant | self-cleavage |
| --- | --- |
| GUCAACGGUCAUAGGCCAUGGAAACUAGGAGCACCAUUUCGCUGCCAGUGAAGAAAUGAACAAAGAAAAUCUGGGCCAGGCAGGCAUCAAAAGAAAUAGUCUUGCGCUCAACCAGAAAGUCUGUAAUCAUUAUAAGGGUA [U3C U132A] | 1.58 |
| GUUAACGGUCAUAGGCCAUGGAAACUAGGAGCACCAUUUCGCUGCCAGUGAAGAAAUGAACAAAGAAAAUCUGGGCCAGGCAGGCAUCAAAAGAAAUAGUCUCGCGCUCAACCAGAAAGACUGUAAUCAUUUUAAGGGUA [U103C U120A] | 1.55 |
| GUUAACGGUCACAGGCCAUGGAAACUAGGAGCACCAUUUCGCUACCAGUGAAGAAAUGAACAAAGAAAAUCUGGGCCAGGCAGGCAUCAAAAGAAAUAGUCUUGCGCUCAACCAGAAAGUCUGUAAUCAUUUUAAGGGUA [U12C G44A] | 2.15 |
| GUCAACGGUCAUAGGCCAUGGAAACUAGGAGCACCAUUUCGCUGCCAGUGAAGAAAUGAACAAAGAAAAUCUGGGCCAGGCAGGCAUCAAAAGAAAUAGUCUUGCGCUCUACCAGAAAGUCUGUAAUCAUUUUAAGGGUA [U3C A110U] | 1.16 |
| GUUAACGGUCAUAGGCCAUGGAAACUAGGAGCACCAUUUCGCUGCCAGUGAAGAAAUGAACAAAGAAAAUCUGGGCCAGGCAGGCAUCAAAAGAAAUAGUCUUGCGCUCAACCAGAAAGACUGUAAUCAUUUUAAGGGUG [U120A A140G] | 1.13 |
| GUUAACGGUCAUAGGCCAAGGAAACUAGGAGCACCAUUUCGCUGCCAGUGAAGAAAUGAACAAAGAAAAUCUGGGCCAGGCAGGCAUCAAAAGAAAUAGUCUUGCGCUUAACCAGAAAGUCUGUAAUCAUUUUAAGGGUA [U19A C109U] | 0.16 |
| GUUAACGGUCAUAGGCCAUGGAAACUAGGAGCACCAUUUCGCUGCCAGUGAAGAAAUGGGCAAAGAAAAUCUGGGCCAGGCAGGCAUCAAAAGAAAUAGUCUUGCGCUCAACCAGAAAGUCUGUAAUCAUUUUAAGGGUA [A59G A60G] | 0.59 |
| GUUAACGGUCAUAGGCCAUGGAAACUAGGAGCACCAUUUCGCUGCCAGUGAAGAAAUGAACAAAGAAAAUCUGGGCCAGGCAGGCGUCAAAAGAAAUAGUCUUACGCUCAACCAGAAAGUCUGUAAUCAUUUUAAGGGUA [A86G G104A] | 0.02 |
| GUUAACGGUCAUAGGCCAUGGAAACUAGGAGCACCAUUUCGCUGCCAGUGAAGAAAUGAACAAAGAAAAUCUGGGCCAGGCAGGCAUCAAAAGAAAUAGUCAUGCGCUCAACCAGAAAGCCUGUAAUCAUUUUAAGGGUA [U102A U120C] | 0.37 |
| GUUAACGGUCAUAGGCCAUGGAAACUAGGAGCACCAUUUCGCUGCCAGUGAAGAAAUGAACAAAGAAAAUCUGGGCCAGGCAGGCAUCAAAAGAAAUAUUCUCGCGCUCAACCAGAAAGUCUGUAAUCAUUUUAAGGGUA [G99U U103C] | 0.15 |
| GUUAACGGUCAUAGGCCAUGGAAACUAGGAGCACAAUUUCGCUGCCAGUGAAGAAAUGAACAAAGAAAAUCUGGGCCAGGCAGGCAUCAAAAGAAAUAGUCUUGCGCUCAACCAGAAAGUCUGUAAUCGUUUUAAGGGUA [C35A A129G] | 1.27 |
| GUUAACGGUCAUAGGCCAUGGAAACUAGGAGCACCAUUUCGCUGCCAGUGAAGAAAUGAACAAAGAAAAUCUGGGCCAGGCAGGCAUCAAAAGAAAUAGUCUUGCGCUCAACCAGAAAGUCUGUAAUCGUUUUAGGGGUA [A129G A135G] | 1.08 |
| GUUAACGGUCAUAGGCCAUGGAAACUAGGAGCACCAUUUCGCUGCCAGUGAAGAAAUGAACAAAGAAAAUCUGGGCCAGGCAGGCAUCAAAAGAAGUAGUCUUGCGCUCAACCAGAAAGUCUGUAAUCAUUUUAAGGGUA [A96G] | 1.37 |
| GUUAACGGUCAUAGGCCAUGGAAACUAGGAGCACCAUUUCGCUGCCAGUGAAGAAAUGAACAAAGAAAAUCUGGGCCAGGCAGGCAUCAAUAGAAAUAGUCUUGCGCUCAACCAGAAUGUCUGUAAUCAUUUUAAGGGUA [A91U A118U] | 1.23 |
| GUUAACGGUCAUAGGCCAUGGAAAUUAGGAGCACCAUUUCGCUGCCAGUGAAGAAAUGAACAAAGAAAAUCUGGGCCAGGCAGGCAUCGAAAGAAAUAGUCUUGCGCUCAACCAGAAAGUCUGUAAUCAUUUUAAGGGUA [C25U A89G] | 1.27 |
| GUUAAUGGUCAUAGGCCAUGGAAACUAGGAGCACCAUUUCGCUGCCAGUGAAGAAAUGAACAAAGAAAAUCUGGGCCAGGCAGGCAUCAAAAGAAAUAGUCUUGCGCUCAACCAGAAAGUCUGUAAUCAUUUUAAGGGUA [C6U] | 0.75 |
| GUUAACGGUCAUAGGCCAUGGAAACUAGGAGCACCAUUUCGCUGCCAGCGAAGAAAUGAACAAAGAGAAUCUGGGCCAGGCAGGCAUCAAAAGAAAUAGUCUUGCGCUCAACCAGAAAGUCUGUAAUCAUUUUAAGGGUA [U49C A67G] | 1.2 |
| GUUAACGGUCAUAGGCCAUGGAAACUAGGAGCACCAUUUCGCUGCCAGUGAGGAUAUGAACAAAGAAAAUCUGGGCCAGGCAGGCAUCAAAAGAAAUAGUCUUGCGCUCAACCAGAAAGUCUGUAAUCAUUUUAAGGGUA [A52G A55U] | 1.51 |
| GUUAACGGUCAUAGGCCAUGGAAACUAGGAGCACCAUUUCGCUGACAGUGAAGAAAUGAACAAAGAAAAUCUGGGCCAGGCAGGCAUCAAAAGAAAUUGUCUUGCGCUCAACCAGAAAGUCUGUAAUCAUUUUAAGGGUA [C45A A98U] | 1.6 |
| GUUAACGGUCAUAGGCCAUGGAAACUAGGAGCACCAUUUCGCUGCCAGUGAAGAAAUGCACAAAGAAAAUCUGGGCCAGGCAGGCAUCAAAAGAAAUAGUCUUGCGCUCAACCAGAAAGUCCGUAAUCAUUUUAAGGGUA [A59C U122C] | 1.06 |
